Consider ten molecules from US20200239570A1 (CRESCENDO BIOLOGICS, published 2020).

The term EC50 (read off the curve) denotes the concentration at which the effect is half-maximal. A high value points to weaker potency. The IC50 is the midpoint of a concentration-inhibition curve. For orientation: EC50 means the midpoint of the concentration-response curve. In general, Kd refers to the concentration at which binding is half-saturated. What is called kon is the rate constant with which the complex forms. In general, koff refers to a measure of how fast the partners let go of each other.

Experiment [1] has as its target human PD-1 expressed on cells (CHO human PD-1 cells) (human) (UniProt Q15116).
Experiment [2] has the same target. This is another data set of the same source.
For experiment [3], the target named is T1, recombinant human PD-1 Fc chimera (human, UniProt Q15116 25-167).
T1 construct: Bought (R&D 1086-PD); Labelled with europium cryptate in the PD-L2 HTRF assay; also called human PD-1 (R&D Systems cat no. 1086-PD); human PD-1-huFc; not shown: human Fc of the bought chimera
Description: HTRF inhibition assay: biotinylated PD-L2-Fc binding to Europium cryptate labelled human PD-1-Fc; the target of the control antibody is not given. A general note: Time-resolved FRET reads energy transfer from a long-lived donor to a nearby acceptor.

Experiment [4] addresses T1, recombinant human PD-1 Fc chimera. Description: HTRF inhibition assay: strep tagged human PD-L1 binding to recombinant human PD-1 (PD-L1 by legend paragraph 65; the sheet's title reads PD1:PDL2); the target of the control antibody is not given.
The target in experiment [5] is T2, human PD-1 expressed on cells (CHO human PD-1 cells) (human, UniProt Q15116 21-288). Description: cell-based or functional assay.
In experiment [6] the target is human PD-1 expressed on cells (CHO human PD-1 cells) (human) (UniProt Q15116). The source holds these as a separate data set.
In experiment [7] the target is T1, recombinant human PD-1 Fc chimera. Description: HTRF inhibition assay: strep tagged human PD-L1 binding to recombinant human PD-1 (PD-L1 by legend paragraph 65; the sheet's title reads PD1:PDL2). On the procedure: All samples and reagents were prepared in HTRF assay buffer containing PBS, 0.1% (w/v) BSA and 0.4M Potassium Fluoride. […] Total binding controls containing periplasmic extract sample buffer and non-specific binding controls containing excess untagged competitor were set up on each plate for data normalisation. Time-resolved fluorescent emission at 620 nm and 665 nm was measured following excitation at 337 nm on the BMG PHERAstar plate reader. Data was expressed as a % of the total binding control (% control) after subtraction of the background signal determined from the non-specific binding control wells.

In experiment [8] the target is T2, human PD-1 expressed on cells (CHO …). Description: FMAT binding assay on CHO human PD-1 cells, detection by anti-His. From the text: Plates were read in the FL2 (502 nm-537 nm) and FL5 (677-800 nm) channels on the TTP Mirrorball plate reader following excitation at 488 nm and 640 nm. Data was gated on FL5 perimeter and peak intensity and the FL2 median mean fluorescence intensity of the gated data used for determination of VH binding.

The target in experiment [9] is T3, mouse PD1 (R&D Systems cat no. 1021-PD) (mouse, UniProt Q02242 25-167).
T3 construct: bought recombinant protein; also called mouse PD-1 protein
T3 sequence (looked up): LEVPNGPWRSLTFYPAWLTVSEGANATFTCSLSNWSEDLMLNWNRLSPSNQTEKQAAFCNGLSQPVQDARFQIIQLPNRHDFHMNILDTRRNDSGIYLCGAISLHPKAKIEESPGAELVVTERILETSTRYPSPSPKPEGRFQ
Description: HTRF binding assay on mouse PD-1. On the procedure: (§1) Purified VH were tested for their ability to bind to human PD-1 (R&D Systems cat no. 1086-PD), cynomolgus PD-1 (Acro Biosystems cat no. PD1-C5254) and mouse PD1 (R&D Systems cat no. 1021-PD) in an HTRF Binding assay format. All reagents and serially diluted VH were prepared in assay buffer containing PBS, 0.1% BSA and 0.4M Potassium Fluoride. Samples or assay buffer (non-specific binding) were incubated with 2 nM human/cynomolgus or mouse PD-1, 1 nM Anti human-Fc Cryptate PAb (Cisbio cat. no. 61HFCKLB) and 30 nM anti His-D2 (CisBio cat no 61HISDLA) in black 384-shallow well assay plates for a minimum of 3 hours at room temperature. Time-resolved fluorescent emission at 620 nm and 665 nm was measured following excitation at 337 nm on the BMG PHERAstar plate reader. The HTRF ratio were calculated ((665 nm emission/620 nm emission)*10000) and the data corrected for (non-specific binding) to give the specific binding signal.

Experiment [10] addresses T2, human PD-1 expressed on cells (CHO …). Description: FMAT epitope competition on CHO human PD-1 cells; competitor 2 nM 2.1-Strep tagged protein. On the procedure:
(§2) For the epitope competition assay reagents were prepared in FMAT assay buffer. […] Plates were incubated for a minimum of 1.5 hours at room temperature then fluorescence measured in the FL2 (502 nm-537 nm) and FL5 (677-800 nm) channels on the Mirrorball plate reader (TTP) following excitation at 488 nm and 640 nm. Data was expressed as a % of the total binding control (i.e. % control) after subtraction of the background signal determined from the non-specific binding control wells.

For experiment [11] the target is unchanged. Description: FMAT epitope competition on CHO human PD-1 cells; competitor 2 nM 1.1-Strep tagged protein. On the procedure: as §2
Experiment [12] has as its target T1, recombinant human PD-1 Fc chimera. Description: HTRF binding assay, His-tagged VH on 2 nM recombinant PD-1. On the procedure: as §1
Experiment [13] deals with T4, cynomolgus PD-1 (Acro Biosystems cat no. PD1-C5254) (cynomolgus, UniProt B0LAJ3 25-170).
T4 construct: bought recombinant protein; also called cyno PD-1; cynomolgus PD-1 recombinant protein; not shown: Human Fc tag of the vendor's construct, and any linker to it; The Fc is implied by detection with anti human-Fc cryptate
The experiment is described as above. On the procedure: as §1

Experiment [14] concerns the target T1, recombinant human PD-1 Fc chimera. Description: BLI (Octet), PD-1-huFc on biosensor, 1:1 fit. On the procedure: Binding kinetics of clones to human PD-1-huFc were measured in real-time bio-layer interferometer based biosensor Octet (ForteBio). Recombinant human PD-1-huFc was either immobilized by standard amine coupling to amine reactive biosensors in 10 mM sodium acetate at pH 5.0 or capture by protein G biosensors (ForteBio). All the binding studies were performed in HBS-ET Octet kinetics buffer. Biosensors were always washed in Octet kinetics buffer in between different steps. A seven point, two-fold dilution series of each Humabody® VH was made with a top concentration in range 100-30 nM. The contact time for each of the association steps was varied between 180-300 seconds and the dissociation step was varied between 400-600 seconds. Kinetic association (kₐ) and dissociation (kd) rate constants were determined by processing and fitting the data to a 1:1 binding model using ForteBio Analysis software.
For orientation: In BLI a coated tip is dipped into the sample, and binding shifts an interference pattern.

Experiment [15] addresses T3, mouse PD1 (R&D Systems cat no. 1021-PD). Description: HTRF binding assay, 2 nM mouse PD-1.
The target in experiment [16] is T2, human PD-1 expressed on cells (CHO …). Description: FMAT, His-tagged VH on CHO human PD-1 cells.
Experiment [17] concerns the target T1, recombinant human PD-1 Fc chimera. Description: SPR (Biacore T200), PD-1-huFc amine-coupled to CM5, single cycle kinetics, 1:1 fit. On the procedure: Binding kinetics of certain VH single domain antibodies binding to human PD-1-huFc were measured by surface plasmon resonance (SPR) technology using Biacore T200 instrument (GE Healthcare). Recombinant human PD-1-huFc was immobilized by standard amine coupling to CM5 sensorschip (GE Healthcare) using 0.01 mg/ml solution of antigen in 10 mM sodium acetate at pH 5.5. For the reference flow cell, a blank immobilisation was carried out. Single cycle kinetics assays were used to study the interaction, a five point, three-fold dilution series of each Humabody® was made with a top concentration of 30 nM. The binding kinetics were followed by flowing the Humabody® over the chip surface in HBS EP+ buffer at a flow rate of 30 μl/min. The contact time for each of the association steps was 180 seconds and the dissociation step was varied between 1200-3600 seconds. The data was fitted to a 1:1 binding model after double reference subtraction using the Biacore T200 Evaluation software.
A general note: Surface plasmon resonance follows binding to a sensor surface in real time, without labels.

Like-named read-outs stand apart in the source and are kept apart here.

T2 sequence (Q15116 21-288): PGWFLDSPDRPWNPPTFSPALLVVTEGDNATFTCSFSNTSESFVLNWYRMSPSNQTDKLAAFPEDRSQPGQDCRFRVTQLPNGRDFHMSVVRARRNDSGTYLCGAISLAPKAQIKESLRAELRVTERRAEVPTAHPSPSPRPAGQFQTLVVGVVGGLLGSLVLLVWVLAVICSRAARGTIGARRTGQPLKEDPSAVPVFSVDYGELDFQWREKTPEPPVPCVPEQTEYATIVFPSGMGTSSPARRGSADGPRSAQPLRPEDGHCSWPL
Chain of human PD-1 expressed on cells (CHO human PD-1 cells) (human) (Q15116 21-288): as above
T1 sequence (Q15116 25-167, change not shown): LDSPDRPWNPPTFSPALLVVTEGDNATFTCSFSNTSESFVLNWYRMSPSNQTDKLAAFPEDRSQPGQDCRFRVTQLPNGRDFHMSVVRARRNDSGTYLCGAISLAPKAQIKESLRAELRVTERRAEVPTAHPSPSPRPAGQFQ
T4 sequence (B0LAJ3 entry or part of it limits assumed): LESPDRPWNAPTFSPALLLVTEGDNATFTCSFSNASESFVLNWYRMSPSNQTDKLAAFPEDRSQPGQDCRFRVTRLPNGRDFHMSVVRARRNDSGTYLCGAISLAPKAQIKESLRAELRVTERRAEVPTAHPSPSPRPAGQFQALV

As for Control, the EC50 (read off the curve), NFAT-luciferase reporter in experiment [1] stood at 20 nM; in [2], 5 nM.

Regarding Control anitbody (antibody), the IC50 (read off the curve) in experiment [3] and in experiment [4] was 0.3 nM throughout.

B1: Blocking VH (VHH)
VHH: EVQLVESGGGLVKPGGSLRLSCAASGFTFSDESMTWMRQAPGKGLEWVSYISSGGGVKFYADSVKGRFTISRDNAKNSLYLQMNSLRAEDTAVYYCAREAPLRLGESPHDAFDISGQGTMVTVSS
Regarding B1, the “EC50 (read off the curve), NFAT-luciferase reporter” value in experiment [5] is ~20 nM.

B2: Blocking VH-4GS-2.12 (protein, part only; not given: 4GS linker, part only)
VH(A)-linker-VH, part: EVQLVESGGGLVKPGGSLRLSCAASGFTFSDESMTWMRQAPGKGLEWVSYISSGGGVKFYADSVKGRFTISRDNAKNSLYLQMNSLRAEDTAVYYCAREAPLRLGESPHDAFDISGQGTMVTVSSEVQLVESGGGVVRPGGSLRLSCAASGFTFDDYAMSWVRQAPGKGLEWVSGITWNAGSTGYADSVKGRFTISRDNAKNSLYLQMNSLRAEDTALYYCVRDKYSYAWSYDDFDIWGQGTMVTVSS
Consider B2, for which the EC50 (read off the curve), NFAT-luciferase reporter in experiment [6] worked out at 1 nM.

B3: Blocking VH-4GS-1.39 (protein, part only; not given: 4GS linker, part only)
VH(A)-linker-VH, part: EVQLVESGGGLVKPGGSLRLSCAASGFTFSDESMTWMRQAPGKGLEWVSYISSGGGVKFYADSVKGRFTISRDNAKNSLYLQMNSLRAEDTAVYYCAREAPLRLGESPHDAFDISGQGTMVTVSSEVQLVESGGGLVQPGRSLRLSCAASGFTFDDYALHWVRQAPGKDLEWVSGISWNGGSYGYADSVKGRFTISRDNAKNSLYLQMNSLRAEDTALYYCVREKGPGLTGSTADYYGLDAWGQGTMVTVSS
B3 returned an EC50 (read off the curve), NFAT-luciferase reporter in experiment [6] of 2 nM.

B4: VH single domain antibody 1.1 (VHH)
VHH: EVQLLESGGGSVQPGRSLRLSCAASGFTFDDHAMHWVRQAPGKGLEWVSGISWNSGSMGYADSVKDRFTISRDNAKSSLYLQMNSLRAEDTALYYCVREKGPGLTGSTADYYGLDVWGQGTMVTVSS
notes: human VH single domain antibody (Humabody), purified through its C-terminal His tag; also called Humabody 1.1; clone 1.1
In the case of B4, the “IC50 (read off the curve)” value in experiment [7] is ~2 nM. The “EC50 (read off the curve)” value in [8] was ~0.5 nM. For the same molecule, the binding result in experiment [9] is on record as “no binding”. The IC50 turned out to be 3.6 nM in [10] and 3.5 nM in experiment [11]. Moreover, the results for the EC50 in [12] and in experiment [13] were 0.5 nM and 0.6 nM, respectively. The Kd in experiment [14] was 1.9 nM. The on-rate constant (kon) in experiment [14] was 450000 M⁻¹ s⁻¹.

B5: 1.21 (VHH)
VHH: EVQLVESGGGLVQPGRSLRLSCAASGFTFDDYAMHWVRQAPGKDLEWVSGISWNGGSMGYAASVKGRFTISRDNAKNSLYLQMNSLRAEDTALYYCVREKGPGLTGSTADYYGLDVWGQGTMVTVSS
notes: also called VH single domain antibody 1.21; Humabody VH 1.21
B5: the concentration giving a half-maximal response (EC50 (read off the curve)) in [8] was ~0.7 nM.

B6: VH single domain antibody 1.2 (VHH)
VHH: EVQLVESGGGLVQPGRSLRLSCAASGFTFDDYAMHWVRQAPGKDLEWVSGISWNGGSMGYAASVKGRFTISRDNAKNSLYLQMNSLRAEDTALYYCVKDKGPGLIGSTADYYGLDVWGQGTTVTVSS
notes: human VH single domain antibody
With B6, the “IC50 (read off the curve)” value in [7] was ~5 nM. For the same molecule, the binding result in [9] is “no binding”. Moreover, the EC50 in experiment [12] is 0.9 nM; in experiment [13], 1.1 nM.

B7: VH single domain antibody 2.1 (VHH)
VHH: EVQLVESGGGVVRPGGSLRLSCAASGFTFDDYAMSWVRQAPGKGLEWVSGITWNGGSTGYADSVKDRFTISRDNAKNSLYLQMNSLRAEDTALYYCVRDKYSYAWSYDGFDIWGQGTMVTVSS
notes: human VH single domain antibody; also called Humabody VH 2.1; clone 2.1
For B7, the binding result in experiment [15] is given as “no binding”. Besides, the results for the IC50 in experiment [10] and in [11] were 9.4 nM and 9.2 nM, respectively. In addition, the EC50 in experiment [12] worked out at 3.3 nM; in experiment [13], 6.3 nM; in experiment [16], 0.7 nM. Moreover, in [14], the Kd came out at 2.6 nM. In addition, in experiment [14], the koff is 0.0015 s⁻¹. Also, in experiment [14], the kon was 590000 M⁻¹ s⁻¹.

B8: Humabody VH 2.12 (VHH)
VHH: EVQLVESGGGVVRPGGSLRLSCAASGFTFDDYAMSWVRQAPGKGLEWVSGITWNAGSTGYADSVKGRFTISRDNAKNSLYLQMNSLRAEDTALYYCVRDKYSYAWSYDDFDIWGQGTMVTVSS
notes: as for B6
With B8, the binding result in [15] is “no binding”. Further, the EC50 worked out at 13 nM in experiment [12], 18 nM in [13] and 1.3 nM in experiment [16]. The equilibrium dissociation constant (Kd) in experiment [17] was 6.89 nM. The koff in experiment [17] came to 0.0385 s⁻¹. Further, the kon in [17] was 5.5e+06 M⁻¹ s⁻¹.
